Data reported in patent US20240024426A1, “HYPOTENSIVE PHARMACEUTICAL COMPOSITION COMPRISING TRIPLE ACTIVATOR HAVING ACTIVITY FOR ALL OF GLUCAGON, GLP-1, AND GIP RECEPTORS” (HANMI PHARM. CO., LTD., priority 2020, published 2024).
Bridges are numbered along the chain shown (N, C = ends). Where no end group is shown, it is not given here. [ ]: non-standard residue; d: D form. The star is where a group is joined. Acetyl(2-(4-imidazolyl)) = O=C(Cc1c[nH]cn1)*; Aib = CC(C)(N)C(=O)O

T1: human GIP receptor (human, UniProt P48546 22-466)
T1 sequence (looked up): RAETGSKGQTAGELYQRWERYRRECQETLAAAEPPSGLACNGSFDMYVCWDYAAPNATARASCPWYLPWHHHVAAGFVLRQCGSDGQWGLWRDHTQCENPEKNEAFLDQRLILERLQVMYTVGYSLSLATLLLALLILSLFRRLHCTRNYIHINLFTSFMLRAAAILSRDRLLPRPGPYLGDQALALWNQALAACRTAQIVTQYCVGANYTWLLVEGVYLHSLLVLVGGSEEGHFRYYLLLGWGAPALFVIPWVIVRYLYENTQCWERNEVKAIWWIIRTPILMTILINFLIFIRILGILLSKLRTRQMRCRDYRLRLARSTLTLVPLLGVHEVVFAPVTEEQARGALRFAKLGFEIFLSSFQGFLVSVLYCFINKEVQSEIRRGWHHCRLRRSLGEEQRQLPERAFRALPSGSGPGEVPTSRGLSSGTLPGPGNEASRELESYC


How the values were obtained:
Test in all cases: cell-based or functional assay
human GIP receptor = biological target: T1, human GIP receptor
human GCG receptor = human GCG receptor (human, UniProt P47871 26-477)
human GLP-1 receptor = human GLP-1 receptor (human, UniProt P43220 24-463)

human GCG receptor, sequence (P47871 26-477): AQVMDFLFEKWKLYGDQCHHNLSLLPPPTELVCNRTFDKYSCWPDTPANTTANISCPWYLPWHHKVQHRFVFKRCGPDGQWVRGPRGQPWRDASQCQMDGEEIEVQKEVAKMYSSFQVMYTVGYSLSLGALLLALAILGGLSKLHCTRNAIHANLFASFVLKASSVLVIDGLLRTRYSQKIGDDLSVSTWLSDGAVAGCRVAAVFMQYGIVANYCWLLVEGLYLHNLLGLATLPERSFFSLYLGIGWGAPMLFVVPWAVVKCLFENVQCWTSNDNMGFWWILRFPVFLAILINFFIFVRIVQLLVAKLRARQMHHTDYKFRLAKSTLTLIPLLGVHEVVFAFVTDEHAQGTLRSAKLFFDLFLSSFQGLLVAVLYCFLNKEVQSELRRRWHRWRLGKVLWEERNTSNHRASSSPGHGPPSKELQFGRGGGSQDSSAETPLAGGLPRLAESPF

Binder	In vitro activity compared with native peptide (%) vs. GIP (human GIP receptor) [%]	In vitro activity compared with native peptide (%) vs. Glucagon (human GCG receptor) [%]	In vitro activity compared with native peptide (%) vs. GLP-1 (human GLP-1 receptor) [%]
[Acetyl(2-(4-imidazolyl))][Aib]QGTFTSDYSIAMDEIHQKDFVNWLLAQKC (bridge 16-20) [Triple agonist of SEQ ID NO: 92]	0.4	< 0.1	0.8
{Acetyl(2-(4-imidazolyl))}-[Aib]QGTFTSDYSIAMDEIHQKDFVNWLLAQC (bridge 15-19) [Triple agonist of SEQ ID NO: 85]	0.3	< 0.1	4.3
Y[Aib]QGTFTSDYSKYLDEKRAKEFVQWLLDHCPSSGQPPPS (bridge 16-20) [Triple agonist of SEQ ID NO: 96]	5.2	195	34.4
H[Aib]QGTFTSDVSKYLDGQAAQEFVAWLLAGGGPSSGAPPPSC [Triple agonist of SEQ ID NO: 10]	< 0.1	< 0.1	46
H[Aib]QGTFTSDYSKYLDEKRQKEFVQWLLDTKC (bridge 16-20) [Triple agonist of SEQ ID NO: 78]	0.12	14	51
Y[Aib]QGTFTSDYSKYLDEKRAKEFVQWLLCHHPSSGQPPPS (bridge 16-20) [Triple agonist of SEQ ID NO: 95]	< 0.1	0.4	2.1
{Acetyl(2-(4-imidazolyl))}-[Aib]QGTFTSDYSKYLDEKRQKEFVQWLLNTC (bridge 15-19) [Triple agonist of SEQ ID NO: 81]	< 0.1	0.3	7.8
Y[Aib]QGTFTSDYSKALDEKAAKEFVNWLLDHHPSSGQPPPSC (bridge 16-20) [Triple agonist of SEQ ID NO: 98]	47.1	8.2	28.1
{Acetyl(2-(4-imidazolyl))}-[Aib]EGTFTSDYSIAMDEIHQKDFVDWLLAEKC (bridge 15-19) [Triple agonist of SEQ ID NO: 91]	0.3	16.8	31.9
Y[Aib]QGTFTSDYSKYLDEKRAKEFVQWLLDCHPSSGQPPPS (bridge 16-20) [Triple agonist of SEQ ID NO: 97]	2.6	62.8	10.5
{Acetyl(2-(4-imidazolyl))}-[Aib]QGTFTSDYSKYLDEKRQKEFVQWLLDTKC (bridge 15-19) [Triple agonist of SEQ ID NO: 89]	< 0.1	0.7	7.1
Y[Aib]QGTFTSDYSKYLDEKAAKDFVQWLLDHHPSSGQPPPSC (bridge 16-20) [Triple agonist of SEQ ID NO: 77]	35.5	12.2	38.7
{Acetyl(2-(4-imidazolyl))}-[Aib]EGTFTSDYSIAMDEIHQKDFVNWLLAQKC (bridge 15-19) [Triple agonist of SEQ ID NO: 90]	< 0.1	< 0.1	7.4
{Acetyl(2-(4-imidazolyl))}-[Aib]QGTFTSDYSKYLDEKRQKEFVNWLLAQKC (bridge 15-19) [Triple agonist of SEQ ID NO: 93]	0.7	0.3	5.7
{Acetyl(2-(4-imidazolyl))}-[Aib]EGTFTSDYSIAMDEIHQKDFVNWLLAQC (bridge 15-19) [Triple agonist of SEQ ID NO: 83]	0.4	1.3	47.3
Y[Aib]QGTFTSDYSKYLDEKRAKDFVQWLLDHHPSSGQPPPSC (bridge 16-20) [Triple agonist of SEQ ID NO: 76]	11.7	47.6	10.3
H[Aib]EGTFTSDYSIAMDEIHQKDFVNWLLAQKC (bridge 16-20) [Triple agonist of SEQ ID NO: 79]	1.4	4.9	41.5
H[Aib]EGTFTSDYSIAMDEIHQKDFVDWLLAEKC (bridge 16-20) [Triple agonist of SEQ ID NO: 80]	0.1	0	8.1
{Acetyl(2-(4-imidazolyl))}-[Aib]QGTFTSDYSKYLDEKRQKEFVQWLLNTKC (bridge 15-19) [Triple agonist of SEQ ID NO: 88]	< 0.1	0.3	9.6
{Acetyl(2-(4-imidazolyl))}-[Aib]QGTFTSDYSIAMDEIHQKDFVNWLLNTKC (bridge 15-19) [Triple agonist of SEQ ID NO: 94]	< 0.1	< 0.1	0.5
{Acetyl(2-(4-imidazolyl))}-[Aib]QGTFTSDYSKYLDEKRQKEFVNWLLAQC (bridge 15-19) [Triple agonist of SEQ ID NO: 86]	0.2	0.4	28.4
{Acetyl(2-(4-imidazolyl))}-[Aib]EGTFTSDYSIAMDEIHQKDFVDWLLAEC (bridge 15-19) [Triple agonist of SEQ ID NO: 84]	< 0.1	< 0.1	4.2
{Acetyl(2-(4-imidazolyl))}-[Aib]QGTFTSDYSIAMDEIHQKDFVNWLLNTC (bridge 15-19) [Triple agonist of SEQ ID NO: 87]	< 0.1	< 0.1	0.9
H[Aib]QGTFTSDVSKYLDGQAAQEFVAWLLAGC [Triple agonist of SEQ ID NO: 9]	< 0.1	0.13	32.1
{Acetyl(2-(4-imidazolyl))}-[Aib]QGTFTSDYSKYLDEKRQKEFVQWLLDTC (bridge 15-19) [Triple agonist of SEQ ID NO: 82]	< 0.1	1.1	9.5
